Results on one variant are retold here after IntAct's records for PubMed 19666511.

B1: GTP-binding protein YPT32/YPT11 (Saccharomyces cerevisiae), P51996 (parent)
chain: MSNEDYGYDYDYLFKIVLIGDSGVGKSNLLSRFTTDEFNIESKSTIGVEFATRTIEVENKKIKAQIWDTAGQERYRAITSAYYRGAVGALIVYDISKSSSYENCNHWLTELRENADDNVAVGLIGNKSDLAHLRAVPTDEAKNFAMENQMLFTETSALNSDNVDKAFRELIVAIFQMVSKHQVDLSGSGTNNMGSNGAPKGPTISLTPAPKEDKKKKSSNCC
partner: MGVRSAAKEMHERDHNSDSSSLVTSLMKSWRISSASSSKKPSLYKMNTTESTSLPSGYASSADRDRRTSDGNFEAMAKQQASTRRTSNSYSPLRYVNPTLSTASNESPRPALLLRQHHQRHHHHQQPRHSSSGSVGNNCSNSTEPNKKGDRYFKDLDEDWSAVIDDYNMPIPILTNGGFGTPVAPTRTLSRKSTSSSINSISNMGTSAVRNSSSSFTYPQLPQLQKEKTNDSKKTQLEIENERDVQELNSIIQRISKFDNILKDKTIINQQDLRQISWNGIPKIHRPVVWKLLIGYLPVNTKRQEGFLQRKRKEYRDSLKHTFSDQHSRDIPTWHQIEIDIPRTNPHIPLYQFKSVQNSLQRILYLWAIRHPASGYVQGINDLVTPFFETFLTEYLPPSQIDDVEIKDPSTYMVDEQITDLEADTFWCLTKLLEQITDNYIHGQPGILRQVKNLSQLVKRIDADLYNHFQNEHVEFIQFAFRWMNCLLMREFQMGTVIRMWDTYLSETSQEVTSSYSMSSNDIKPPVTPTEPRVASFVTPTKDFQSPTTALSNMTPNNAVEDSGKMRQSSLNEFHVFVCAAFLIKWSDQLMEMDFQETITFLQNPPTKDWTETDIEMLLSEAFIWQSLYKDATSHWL

The variants in the experiment derive from B1. Conditions: with gyp1_yeast GYP1, Q08484.
With MSNEDYGYDYDYLFKIVLIGDSGVGKNNLLSRFTTDEFNIESKSTIGVEFATRTIEVENKKIKAQIWDTAGQERYRAITSAYYRGAVGALIVYDISKSSSYENCNHWLTELRENADDNVAVGLIGNKSDLAHLRAVPTDEAKNFAMENQMLFTETSALNSDNVDKAFRELIVAIFQMVSKHQVDLSGSGTNNMGSNGAPKGPTISLTPAPKEDKKKKSSNCC [S27N], the “effect of a mutation on the interaction” value is “disrupting interaction”.
